Test results taken from patent US5922541.

Key:
human neutrophils = experiment: competition of 125I-IL-8 by unlabelled IL-8 on human neutrophils, Scatchard analysis
[1] = biological target: human IL-8 type A receptor (IL8R-A), encoded by clone pRK5B.il8r1.1 (human); experiment: competition of 125I-IL-8 by unlabelled IL-8 on COS cells transfected with pRK5B.il8r1.1, Scatchard analysis

Substance “recombinant human IL-8 (72 amino acid form, made in E. coli) (from UniProt P10145) (ligand)” has a Kd (human neutrophils) of 1.1 nM and a Kd [1] of 3.6 nM.
